Test results published in patent US20210079099A1 (VESTLANDETS INNOVASJONSSELSKAP, published 2021).

How the values were obtained:
Assay in all cases: flow cytometry on fixed transfected C2C12 cells
[1] = molecular target: T1, human integrin alpha-2-mCherry expressed on C2C12 cells (human, UniProt P17301 30-1181)
T1 construct: whole, on cells; Transfected C2C12 cells fixed with 2% paraformaldehyde/PBS before staining; not shown: mCherry tag
T1 sequence (looked up): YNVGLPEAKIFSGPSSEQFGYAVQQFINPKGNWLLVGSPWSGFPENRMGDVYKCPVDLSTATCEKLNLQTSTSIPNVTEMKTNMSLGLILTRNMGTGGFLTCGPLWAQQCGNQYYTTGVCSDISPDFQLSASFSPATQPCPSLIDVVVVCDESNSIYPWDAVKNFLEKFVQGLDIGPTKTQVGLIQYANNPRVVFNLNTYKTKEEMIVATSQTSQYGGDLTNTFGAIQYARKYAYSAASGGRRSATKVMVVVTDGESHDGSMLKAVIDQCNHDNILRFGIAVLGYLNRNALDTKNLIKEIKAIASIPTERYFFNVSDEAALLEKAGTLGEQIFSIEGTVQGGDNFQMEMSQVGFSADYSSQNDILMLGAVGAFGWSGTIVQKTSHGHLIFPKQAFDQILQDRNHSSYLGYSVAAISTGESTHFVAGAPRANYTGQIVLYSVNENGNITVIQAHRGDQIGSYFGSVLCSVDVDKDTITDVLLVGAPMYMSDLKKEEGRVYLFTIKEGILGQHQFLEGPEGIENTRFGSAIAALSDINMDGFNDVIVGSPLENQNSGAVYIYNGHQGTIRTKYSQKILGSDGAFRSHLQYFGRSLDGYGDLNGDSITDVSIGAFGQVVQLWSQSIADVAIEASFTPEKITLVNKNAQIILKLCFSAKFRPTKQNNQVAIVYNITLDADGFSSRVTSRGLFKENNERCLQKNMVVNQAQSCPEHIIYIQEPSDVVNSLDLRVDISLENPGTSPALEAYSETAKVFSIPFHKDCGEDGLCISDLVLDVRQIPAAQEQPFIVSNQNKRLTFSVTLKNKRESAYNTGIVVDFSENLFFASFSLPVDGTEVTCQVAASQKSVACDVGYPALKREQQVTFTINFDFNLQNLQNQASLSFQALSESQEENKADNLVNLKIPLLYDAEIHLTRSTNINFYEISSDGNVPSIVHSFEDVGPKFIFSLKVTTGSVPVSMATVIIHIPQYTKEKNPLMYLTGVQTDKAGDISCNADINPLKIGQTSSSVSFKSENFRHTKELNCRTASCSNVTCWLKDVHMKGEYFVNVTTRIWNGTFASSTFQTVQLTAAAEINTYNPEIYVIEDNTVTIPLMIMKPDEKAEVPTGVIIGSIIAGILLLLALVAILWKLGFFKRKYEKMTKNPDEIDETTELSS
Protocol: (§1) To identify the epitope of the deposited integrin alpha-11 monoclonal antibodies. C2C12 cells were transfected with plasmids containing cDNAs encoding human integrin alpha-2-mCherry, human integrin alpha-11-EGFP, chimeric alpha-11Ialpha2mCherry or chimeric alpha-21-alpha-11EGFP as shown in FIG. 4a. Transfection was conducted as described in the art. 2% paraformaldehyde/PBS fixed transfected C2C12 cells were incubated with either antibody 203E1H5, see FIG. 4b or with antibody 234H11E8, see FIG. 4c, mouse anti-human alpha-11 IgG antibodies according to the present invention and then incubated with conjugated goat-anti mouse IgG, Alexa Fluor® 647 and analysed using a FACS Accuri measuring the dye accordingly.

[2] = molecular target: T2, chimeric human integrin alpha-2 carrying the alpha-11 I-domain, mCherry fusion, on C2C12 cells (human, UniProt P17301 30-168; Q9UKX5 161-355; P17301 367-1181)
T2 construct: also called chimeric alpha-11Ialpha2mCherry; not shown: mCherry tag
T2 sequence (looked up): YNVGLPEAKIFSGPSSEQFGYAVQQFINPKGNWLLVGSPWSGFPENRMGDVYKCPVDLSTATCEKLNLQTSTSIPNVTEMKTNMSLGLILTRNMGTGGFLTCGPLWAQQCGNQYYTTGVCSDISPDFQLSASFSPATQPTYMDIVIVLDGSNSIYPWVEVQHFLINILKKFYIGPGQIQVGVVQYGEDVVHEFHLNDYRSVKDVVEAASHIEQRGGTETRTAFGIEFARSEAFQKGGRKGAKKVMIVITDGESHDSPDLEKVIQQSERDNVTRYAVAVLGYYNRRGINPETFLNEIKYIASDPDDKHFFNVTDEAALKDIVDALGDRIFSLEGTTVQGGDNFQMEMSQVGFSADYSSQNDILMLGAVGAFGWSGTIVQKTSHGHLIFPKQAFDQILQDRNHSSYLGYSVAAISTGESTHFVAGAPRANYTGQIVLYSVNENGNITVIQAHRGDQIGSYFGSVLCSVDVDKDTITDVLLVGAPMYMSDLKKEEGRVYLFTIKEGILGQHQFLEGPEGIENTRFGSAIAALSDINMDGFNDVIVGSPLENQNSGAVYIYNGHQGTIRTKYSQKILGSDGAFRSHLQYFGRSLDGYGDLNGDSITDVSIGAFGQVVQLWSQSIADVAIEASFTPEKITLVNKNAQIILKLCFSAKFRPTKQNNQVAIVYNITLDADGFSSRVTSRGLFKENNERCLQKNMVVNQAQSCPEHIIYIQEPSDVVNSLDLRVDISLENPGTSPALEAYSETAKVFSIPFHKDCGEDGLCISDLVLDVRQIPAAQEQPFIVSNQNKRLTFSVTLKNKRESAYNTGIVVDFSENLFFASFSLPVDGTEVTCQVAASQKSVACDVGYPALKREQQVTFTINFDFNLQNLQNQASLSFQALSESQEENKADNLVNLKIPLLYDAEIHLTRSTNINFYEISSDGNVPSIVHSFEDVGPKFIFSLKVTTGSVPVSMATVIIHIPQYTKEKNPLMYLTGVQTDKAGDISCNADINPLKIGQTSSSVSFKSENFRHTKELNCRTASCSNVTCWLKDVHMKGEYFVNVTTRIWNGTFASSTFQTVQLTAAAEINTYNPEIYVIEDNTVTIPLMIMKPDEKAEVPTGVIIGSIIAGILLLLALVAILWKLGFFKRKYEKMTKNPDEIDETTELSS
Protocol: as §1

[3] = molecular target: T3, human integrin α11-EGFP expressed on C2C12 mouse myoblast cells (human, UniProt Q9UKX5 23-1188)
T3 construct: whole, on cells; Alpha chain fused to EGFP, expressed in mouse C2C12 cells, which express no human integrins; the beta-1 partner chain on these cells is not described; In the Western blot the cell lysate was used; also called C2C12-α11 EGFP; C2C12-hu α11-EGFP; not shown: EGFP tag
T3 sequence (looked up): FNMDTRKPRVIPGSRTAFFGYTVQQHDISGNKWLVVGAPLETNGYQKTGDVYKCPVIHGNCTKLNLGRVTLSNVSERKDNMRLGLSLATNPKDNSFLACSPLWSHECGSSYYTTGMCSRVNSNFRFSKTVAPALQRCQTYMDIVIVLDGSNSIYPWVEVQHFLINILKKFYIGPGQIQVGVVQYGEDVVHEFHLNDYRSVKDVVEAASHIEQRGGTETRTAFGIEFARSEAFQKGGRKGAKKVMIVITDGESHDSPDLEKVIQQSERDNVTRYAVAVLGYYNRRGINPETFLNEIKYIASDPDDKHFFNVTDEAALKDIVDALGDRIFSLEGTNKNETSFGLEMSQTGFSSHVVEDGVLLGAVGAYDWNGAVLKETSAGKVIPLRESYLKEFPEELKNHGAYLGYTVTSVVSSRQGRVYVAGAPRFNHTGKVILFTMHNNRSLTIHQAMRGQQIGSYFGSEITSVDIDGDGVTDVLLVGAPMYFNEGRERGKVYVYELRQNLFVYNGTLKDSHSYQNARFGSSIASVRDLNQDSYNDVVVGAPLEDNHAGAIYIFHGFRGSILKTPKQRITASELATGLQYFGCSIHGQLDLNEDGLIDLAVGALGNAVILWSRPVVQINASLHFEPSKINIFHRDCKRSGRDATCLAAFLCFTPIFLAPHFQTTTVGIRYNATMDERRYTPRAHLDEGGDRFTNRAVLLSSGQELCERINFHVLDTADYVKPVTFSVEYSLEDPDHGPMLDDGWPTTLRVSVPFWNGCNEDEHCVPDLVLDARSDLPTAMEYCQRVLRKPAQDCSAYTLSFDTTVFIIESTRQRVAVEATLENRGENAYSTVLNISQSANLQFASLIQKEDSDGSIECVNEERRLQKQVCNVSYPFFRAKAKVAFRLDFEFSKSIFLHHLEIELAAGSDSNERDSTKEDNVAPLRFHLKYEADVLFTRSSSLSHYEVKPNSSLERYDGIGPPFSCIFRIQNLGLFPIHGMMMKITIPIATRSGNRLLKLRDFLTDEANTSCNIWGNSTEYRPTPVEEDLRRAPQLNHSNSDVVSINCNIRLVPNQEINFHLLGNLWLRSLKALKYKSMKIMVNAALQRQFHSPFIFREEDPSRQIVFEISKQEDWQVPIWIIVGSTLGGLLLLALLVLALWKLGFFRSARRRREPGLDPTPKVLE
Protocol: as §1

Binder	binding result [1]	binding result [2]	binding result [3]
monoclonal mouse antibody 203 E1H5 produced by the hybridoma deposited as DSM ACC3318 (antibody, V domains shown, Mouse anti-human alpha-11 IgG from a hybridoma (NT-HRM mice); used as hybridoma supernatant or mAb; also called 203E1H5 mAb; α11 203E1H5 mAb) VH: QVQLKESGPGLVAPSQSLSITCTVSGFSLTNYAVHWVRQSPGKGLEWLGVIWSYGSTDYNAAFISKLSISKDNSKSQVFFTMSSLQADDTAIYYCARSQIYGGFYDFFDFWGQGTTLTVSS VL: CDIQMTQTPSSLSASLGDRVTIICRASQDISNFLNWFQQKPDGTIKLLIYYSSRLHSGVPSRFSGSGSGTDYSLTISNLEQEDLATYFCQQGNTLPLTFGAGTKLELT	no binding	no binding	–
monoclonal mouse antibody 234 H11E8 produced by the hybridoma deposited as DSM ACC3319 (antibody, V domains shown, Mouse anti-human alpha-11 IgG from a hybridoma (NT-HRM mice); used as hybridoma supernatant or mAb; constant regions are not; also called 234H11E8 mAb; α11 234H11E8 mAb) VH: QVQLKESGPGLVAPSQSLSITCTVSGFSLTNSAVHWVRQSPGKGLEWLGVVWSYGSTDYNAAFISRLSITKDNSKSQVFFKMNSLQADDTAIYYCARSQIYADYYDYFDYWGQGTTLTVSS VL: DIQMTQSTSSLSASLGDRVTISCRASQDISNFLNWSQQKPDGTVKLLIYYTSRLHSGVPSRFSGSGSGTDYSLTISNLEQEDIGTYFCQQGNTLPLTFGAGTKLELR	no binding	no binding	binds
